Earlier results on one substance are cited in article PMC5493423.

Usually Kd stands for the constant that tells how readily two partners part at equilibrium.

The test system of this series is CD31 (protein used for the reported Kd). The settings on record: biotin; PBMCs at 1e7 cells/ml, 100 ul, aptamer 30 min at 4 C, then flow cytometry staining buffer; column in APTSCI binding buffer (composition not given). For orientation: In flow cytometry, cells or beads pass a laser one at a time.

On to “CD31 aptamer, biotinylated (APTSCI CD31-2196BCI)”, for which the Kd was 1.14 nM.
